The record followed here is paper PMC3920632, “bkaR is a TetR-type repressor that controls an operon associated with branched-chain keto-acid metabolism in Mycobacteria”.

Series [1] concerns the target T1, His6-BkaRMtb (Mycobacterium tuberculosis H37Rv, UniProt O06169 1-215).
T1 sequence: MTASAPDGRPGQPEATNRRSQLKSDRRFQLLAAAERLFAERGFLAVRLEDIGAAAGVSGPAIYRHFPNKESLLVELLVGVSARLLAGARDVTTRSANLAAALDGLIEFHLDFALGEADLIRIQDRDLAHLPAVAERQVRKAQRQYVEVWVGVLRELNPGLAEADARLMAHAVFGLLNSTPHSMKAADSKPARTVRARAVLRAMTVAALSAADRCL
The series can be described thus: EMSA; 20 mM HEPES pH 7.6, 1 mM EDTA, 10 mM ([…]; temperature not stated. Particulars: protein: recombinant, tags: His6 (pNIC28-Bsa4, GenBank EF198106), chain copies: 2, blunt. For orientation: Mobility shift assays separate free from complexed probe on a gel.

In series [2] the target is T1, His6-BkaRMtb. The series can be described thus: EMSA; 0.6 uM protein, 0.06 uM DNA; 20 mM HEPES pH 7.6, 1 mM EDTA, 10 mM ([…]; temperature not stated. As to conditions: protein: recombinant; tags: His6 (pNIC28-Bsa4, GenBank EF198106); chain copies: 2; blunt.

B1: probe 1 (bkaRMtb/fadD35) (dsDNA)
DNA 1: TCGTGCTACGTTAGTGACGATTAACCGAAG
DNA 2: CTTCGGTTAATCGTCACTAACGTAGCACGA
Take B1: the binding result in series [1] (label: DIG-11-ddUTP 3' end) is “binds”.

B2: MSMEG_3414 motif probe (dsDNA)
DNA 1: TCGGTCCAGGTTAGCCAAAACTATTTCAGAA
DNA 2: TTCTGAAATAGTTTTGGCTAACCTGGACCGA
For B2, the binding result in series [1] is on record as “no binding”.

B3: scoA motif probe (dsDNA)
DNA 1: CTCACCTCAGTTAATGATAATTAACTGAAA
DNA 2: TTTCAGTTAATTATCATTAACTGAGGTGAG
Turning to B3, the binding result in series [2] is “binds”.

B4: MSMEG_4524 motif probe (dsDNA)
DNA 1: CAGCAAGTAAATGTAGCCTAACCTAGCTACG
DNA 2: CGTAGCTAGGTTAGGCTACATTTACTTGCTG
In the case of B4, the binding result in series [1] is given as “no binding”.

B5: Rv0576 motif probe (dsDNA)
DNA 1: GATCAATACGTTAGTGAGCGCTAACGTATT
DNA 2: AATACGTTAGCGCTCACTAACGTATTGATC
As for B5, in series [1], the binding result is “no binding”.

B6: MSMEG_4920 motif probe (dsDNA)
DNA 1: GCTGTGTTAACGATGATTAACCGGCACAGC
DNA 2: GCTGTGCCGGTTAATCATCGTTAACACAGC
Consider B6, for which, in series [2], the binding result was “binds”.

B7: Rv0575c motif probe (dsDNA)
DNA 1: ACGCCAATACGTTAGCGCTCACTAACGTATTG
DNA 2: CAATACGTTAGTGAGCGCTAACGTATTGGCGT
With B7, the binding result in series [1] is “no binding”.

B8: MSMEG_3415 motif probe (dsDNA)
DNA 1: TACTTCTGAAATAGTTTTGGCTAACCTGGAC
DNA 2: GTCCAGGTTAGCCAAAACTATTTCAGAAGTA
Regarding B8, in series [1], the binding result was “no binding”.
